B1: Mothers against decapentaplegic homolog 3 (Homo sapiens), P84022 (parent)
chain: MSSILPFTPPIVKRLLGWKKGEQNGQEEKWCEKAVKSLVKKLKKTGQLDELEKAITTQNVNTKCITIPRSLDGRLQVSHRKGLPHVIYCRLWRWPDLHSHHELRAMELCEFAFNMKKDEVCVNPYHYQRVETPVLPPVLVPRHTEIPAEFPPLDDYSHSIPENTNFPAGIEPQSNIPETPPPGYLSEDGETSDHQMNHSMDAGSPNLSPNPMSPAHNNLDLQPVTYCEPAFWCSISYYELNQRVGETFHASQPSMTVDGFTDPSNSERFCLGLLSNVNRNAAVELTRRHIGRGVRLYYIGGEVFAECLSDSAIFVQSPNCNQRYGWHPATVCKIPPGCNLKIFNNQEFAALLAQSVNQGFEAVYQLTRMCTIRMSFVKGWGAEYRRQTVTSTPCWIELHLNGPLQWLDKVLTQMGSPSIRCSSVS
partner: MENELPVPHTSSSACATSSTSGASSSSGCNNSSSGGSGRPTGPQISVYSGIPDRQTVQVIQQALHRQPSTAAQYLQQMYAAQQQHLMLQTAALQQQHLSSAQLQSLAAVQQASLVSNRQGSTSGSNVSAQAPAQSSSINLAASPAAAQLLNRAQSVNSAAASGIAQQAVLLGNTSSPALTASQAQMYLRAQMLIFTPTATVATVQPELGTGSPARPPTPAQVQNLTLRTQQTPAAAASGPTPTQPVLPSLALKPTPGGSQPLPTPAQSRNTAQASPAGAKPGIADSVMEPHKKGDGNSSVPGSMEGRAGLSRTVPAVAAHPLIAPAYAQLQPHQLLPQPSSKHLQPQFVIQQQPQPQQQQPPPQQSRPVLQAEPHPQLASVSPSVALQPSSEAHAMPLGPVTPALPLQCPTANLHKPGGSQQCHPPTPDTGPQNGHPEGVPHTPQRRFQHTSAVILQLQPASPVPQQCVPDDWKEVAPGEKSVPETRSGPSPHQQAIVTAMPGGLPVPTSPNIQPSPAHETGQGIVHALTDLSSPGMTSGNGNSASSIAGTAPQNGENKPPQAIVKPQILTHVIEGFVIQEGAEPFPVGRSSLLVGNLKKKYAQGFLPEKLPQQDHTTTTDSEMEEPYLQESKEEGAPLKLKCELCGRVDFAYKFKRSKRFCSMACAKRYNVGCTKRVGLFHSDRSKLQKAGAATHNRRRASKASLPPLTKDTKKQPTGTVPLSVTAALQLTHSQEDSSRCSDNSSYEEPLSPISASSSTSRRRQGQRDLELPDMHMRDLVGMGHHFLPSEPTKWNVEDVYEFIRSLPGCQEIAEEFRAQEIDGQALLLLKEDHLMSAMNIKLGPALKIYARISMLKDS
B2: Polycomb complex protein BMI-1 (Homo sapiens), P35226 (parent)
chain: MHRTTRIKITELNPHLMCVLCGGYFIDATTIIECLHSFCKTCIVRYLETSKYCPICDVQVHKTRPLLNIRSDKTLQDIVYKLVPGLFKNEMKRRRDFYAAHPSADAANGSNEDRGEVADEDKRIITDDEIISLSIEFFDQNRLDRKVNKDKEKSKEEVNDKRYLRCPAAMTVMHLRKFLRSKMDIPNTFQIDVMYEEEPLKDYYTLMDIAYIYTWRRNGPLPLKYRVRPTCKRMKISHQRDGLTNAGELESDSGSDKANSPAGGIPSTSSCLPSPSTPVQSPHPQFPHISSTMNGTSNSPSGNHQSSFANRPRKSSVNGSSATSSG
partner: B1 partner
B3: Peripheral myelin protein 22 (Homo sapiens), Q01453 (parent)
chain: MLLLLLSIIVLHVAVLVLLFVSTIVSQWIVGNGHATDLWQNCSTSSSGNVHHCFSSSPNEWLQSVQATMILSIIFSILSLFLFFCQLFTLTKGGRFYITGIFQILAGLCVMSAAAIYTVRHPEWHLNSDYSYGFAYILAWVAFPLALLSGVIYVILRKRE
partner: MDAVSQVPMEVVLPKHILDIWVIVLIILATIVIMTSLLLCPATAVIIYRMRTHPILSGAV
B4: Proton-coupled zinc antiporter SLC30A2 (Homo sapiens), Q9BRI3 (parent)
chain: MEAKEKQHLLDARPAIRSYTGSLWQEGAGWIPLPRPGLDLQAIELAAQSNHHCHAQKGPDSHCDPKKGKAQRQLYVASAICLLFMIGEVVGGYLAHSLAVMTDAAHLLTDFASMLISLFSLWMSSRPATKTMNFGWQRAEILGALVSVLSIWVVTGVLVYLAVERLISGDYEIDGGTMLITSGCAVAVNIIMGLTLHQSGHGHSHGTTNQQEENPSVRAAFIHVIGDFMQSMGVLVAAYILYFKPEYKYVDPICTFVFSILVLGTTLTILRDVILVLMEGTPKGVDFTAVRDLLLSVEGVEALHSLHIWALTVAQPVLSVHIAIAQNTDAQAVLKTASSRLQGKFHFHTVTIQIEDYSEDMKDCQACQGPSD
partner: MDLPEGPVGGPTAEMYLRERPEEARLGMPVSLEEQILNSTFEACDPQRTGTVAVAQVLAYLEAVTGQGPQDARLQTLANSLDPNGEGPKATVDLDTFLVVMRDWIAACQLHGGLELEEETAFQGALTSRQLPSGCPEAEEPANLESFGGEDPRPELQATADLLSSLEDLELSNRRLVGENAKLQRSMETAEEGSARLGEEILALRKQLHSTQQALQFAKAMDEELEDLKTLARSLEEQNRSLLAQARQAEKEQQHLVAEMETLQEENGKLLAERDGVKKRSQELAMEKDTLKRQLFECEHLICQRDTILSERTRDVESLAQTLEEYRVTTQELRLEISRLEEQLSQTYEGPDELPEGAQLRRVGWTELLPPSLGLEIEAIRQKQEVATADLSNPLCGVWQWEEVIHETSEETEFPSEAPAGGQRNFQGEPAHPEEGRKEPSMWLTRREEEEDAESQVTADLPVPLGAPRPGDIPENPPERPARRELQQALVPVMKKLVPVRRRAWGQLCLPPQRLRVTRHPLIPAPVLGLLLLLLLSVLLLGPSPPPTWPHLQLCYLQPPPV

Variants of: B1
Conditions: with PHC2, Q8IXK0-5

effect of a mutation on the interaction | Variant
with no effect | N197I
with no effect | I170V

Variants of: B2
Conditions: with PHC2, Q8IXK0-5

effect of a mutation on the interaction | Variant
disrupting interaction strength | MHRTTRIKITELNPHLMYVLCGGYFIDATTIIECLHSFCKTCIVRYLETSKYCPICDVQVHKTRPLLNIRSDKTLQDIVYKLVPGLFKNEMKRRRDFYAAHPSADAANGSNEDRGEVADEDKRIITDDEIISLSIEFFDQNRLDRKVNKDKEKSKEEVNDKRYLRCPAAMTVMHLRKFLRSKMDIPNTFQIDVMYEEEPLKDYYTLMDIAYIYTWRRNGPLPLKYRVRPTCKRMKISHQRDGLTNAGELESDSGSDKANSPAGGIPSTSSCLPSPSTPVQSPHPQFPHISSTMNGTSNSPSGNHQSSFANRPRKSSVNGSSATSSG [C18Y]

Variants of: B3
Conditions: with smim3_human SMIM3, Q9BZL3

effect of a mutation on the interaction | Variant
disrupting interaction strength | MLLLLLSIIVLHVAVLVLLFVSTIVSQWIVGNGHATDLWQNCSTSSSGNVHHCFSSSPNEWLQSVQATMILSIIFSILSLFLFFCQLFTLTKGGRFYITGIFQILAGLCVMSAAAIYTVRHPEWHLNSDYSYGFAYILAWVAFPLALLSGVIYVILGKRE

Variants of: B4
Conditions: with kash5_human KASH5, Q8N6L0

effect of a mutation on the interaction | Variant
with no effect | MEAKEKQHLLDARPAIRSYTGSLWQEGAGWIPLPRPGLDLQAIELAAQSNHHCRAQKGPDSHCDPKKGKAQRQLYVASAICLLFMIGEVVGGYLAHSLAVMTDAAHLLTDFASMLISLFSLWMSSRPATKTMNFGWQRAEILGALVSVLSIWVVTGVLVYLAVERLISGDYEIDGGTMLITSGCAVAVNIIMGLTLHQSGHGHSHGTTNQQEENPSVRAAFIHVIGDFMQSMGVLVAAYILYFKPEYKYVDPICTFVFSILVLGTTLTILRDVILVLMEGTPKGVDFTAVRDLLLSVEGVEALHSLHIWALTVAQPVLSVHIAIAQNTDAQAVLKTASSRLQGKFHFHTVTIQIEDYSEDMKDCQACQGPSD [H54R]
